PMC6172220, “Calcineurin B homologous protein 3 binds with high affinity to the CHP binding domain of the human sodium/proton exchanger NHE1” (Scientific Reports, 2006)
“And” between values parts separate entries of the source, which are not always exact repeats. Equal values may be shown once.

B1: MBP-CBD: CHP-binding region of human NHE1 (residues 503-545) fused to maltose-binding protein at its amino-terminus (domain or fragment, UniProt P19634 503-545, looked up)
chain: VDLLAVKKKQETKRSINEEIHTQFLDHLLTGIEDICGHYGHHH
notes: also called MBP-CBD^NHE1; NHE1-CBD; source: E. coli BL21 (DE3), purified (IMAC, SEC on Superdex 200); not shown: MBP, N-terminal, kept; His8, C-terminal, kept
B2: MBP-CBD: CHP-binding region of human NHE1 (residues 503-545) fused to maltose-binding protein (domain or fragment, UniProt P19634 503-545, looked up)
chain: B1 chain
notes: The TEV site is printed without Tyr; No site for removal of the C-terminal His8 is described; also called MBP-CBD^NHE1; NHE1-CBD; source: E. coli BL21 (DE3), purified (IMAC, SEC); not shown: MBP (E. coli malE; UniProtKB P0AEX9 residues 27-393), N-terminal, kept
B3: human calcineurin B homologous protein 3 (CHP3), hexa-histidine tagged (natural protein, UniProt Q96BS2 2-214, looked up)
chain: GAAHSASEEVRELEGKTGFSSDQIEQLHRRFKQLSGDQPTIRKENFNNVPDLELNPIRSKIVRAFFDNRNLRKGPSGLADEINFEDFLTIMSYFRPIDTTMDEEQVELSRKEKLRFLFHMYDSDSDGRITLEEYRNVVEELLSGNPHIEKESARSIADGAMMEAASVCMGQMEPDQVYEGITFEDFLKIWQGIDIETKMHVRFLNMETMALCH
B4: human calcineurin B homologous protein 3 (CHP3), hexa-histidine tagged (natural protein, UniProt Q96BS2 2-214, looked up)
chain: B3 chain
modifications: fluorescent label NT647, randomly attached, labelling efficiency about 30% (MST only)

What was measured:
Details in all cases: both partners purified
[1] = target: B3; assay: ITC; CHP3 (nominal 200 uM) in the syringe injected into MBP-CBD (nominal 20 uM) in the cell, 57 injections, 25 °C; 20 mM HEPES, 150 mM NaCl, 10 mM MgCl2, 5 mM TCEP, pH 7.2; biological triplicates, raw data: each data set fitted freely (KD, dH, n, offset)
[2] = target: B3; assay: ITC; the same titrations (CHP3 in the syringe, MBP-CBD in the cell, 25 °C, ITC buffer pH 7.2) refitted one by one after the triple-shift correction: corrected active concentrations of CHP3 and MBP-CBD, dH fixed to the average of the raw fits, n = 1 by the correction
[3] = target: B4; assay: MST; NT647-labelled CHP3 at 10 nM, MBP-CBD titrated in 16 steps of 1:1 dilution; 20 mM HEPES, 150 mM NaCl, 0.05% Tween-20, 10 mM MgCl2, 5 mM TCEP, pH 7.2; 22 °C; bimolecular binding model; three biological replicates of five technical replicates each
[4] = target: B4; assay: ITC; 200 uM CHP3 in the syringe injected into 20 uM MBP-CBD in the cell, 57 injections, 25 °C; 20 mM HEPES, 150 mM NaCl, 10 mM MgCl2, 5 mM TCEP, pH 7.2; global fit of three concentration-corrected biological replicates assuming n = 1
[5] = target: B1; assay: ITC; CHP3 (nominal 200 uM) in the syringe injected into MBP-CBD (nominal 20 uM) in the cell, 57 injections, 25 °C; 20 mM HEPES, 150 mM NaCl, 10 mM MgCl2, 5 mM TCEP, pH 7.2; biological triplicates, raw data: each data set fitted freely (KD, dH, n, offset)
[6] = target: B1; assay: ITC; the same titrations (CHP3 in the syringe, MBP-CBD in the cell, 25 °C, ITC buffer pH 7.2) refitted one by one after the triple-shift correction: corrected active concentrations of CHP3 and MBP-CBD, dH fixed to the average of the raw fits, n = 1 by the correction
[7] = target: B2; assay: SEC; analytical SEC, Superdex 200 10/300 GL; 20 uM samples mixed equimolar (250 ul each); 20 mM HEPES, 150 mM NaCl, 1 mM TCEP, pH 7.2; peak fractions checked by SDS-PAGE

Binder: B1
Kd [1]: 3 nM and 2.4 nM and 4.5 nM and 3.3 nM
Kd [2]: 3.1 nM and 2.1 nM and 5.1 nM and 3.4 nM

Binder: B2
Kd [3]: 62.7 nM and 54.8 nM and 49 nM and 55.5 nM
Kd [4]: 3 nM

Binder: B3
stoichiometry N [5]: 0.97 and 1.2 and 1.1 and 1.09
stoichiometry N [6]: 1

Binder: B4
stoichiometry N [7]: 1
